These results are taken from paper PMC2950884 (Nature structural & molecular biology, 2010).

Data set [1] concerns the target Rtt103 CTD-interacting domain (residues 1-131) (S. cerevisiae) (UniProt Q05543). Description: NMR titration.
In data set [2] the target is Pcf11 CTD-interacting domain (S. cerevisiae) (UniProt P39081). Kind of data set: NMR titration.
Data set [3] concerns the target Pcf11-CID (N107R) (S. cerevisiae) (UniProt P39081). Description: NMR titration.
The data set “AUC” deals with the molecule itself. Kind of data set: AUC.
Data set [4] addresses four heptad repeat Ser2P CTD peptide. Kind of data set: fluorescence polarisation. On the technique in general: In fluorescence polarisation assays a small probe gives low polarisation when free and higher when bound to something large.
Data set [5] has as its target Ser2abP-CTD diheptad repeat peptide (phosphorylated at both Ser2 positions). Kind of data set: fluorescence polarisation.
The target of data set [6] is Ser2abP/Ser5abP-CTD diheptad repeat peptide. Description: fluorescence polarisation.
The test system of another data set is ADH1 gene. Description: ChIP of TAP tagged proteins, 3′-end recruitment. In kind it is cell-based, yeast.
The test system of a further data set is PMA1 gene. Kind of data set: ChIP of TAP tagged proteins, 3′-end recruitment. The class given is cell-based, yeast.
Data set [7] addresses four heptad repeat Ser2P CTD peptide. Kind of data set: NMR relaxation.
Data set [8] deals with Ser5abP-CTD diheptad repeat peptide. Kind of data set: fluorescence polarisation.
Where [9] appears, read: untagged wild-type Pcf11 present.

As for Ser2aP-CTD diheptad repeat peptide, the Kd – broadly, the concentration at which binding is half-saturated – in data set [1] came out at 420 µM; in data set [2] it was 1400 µM.

Take “Ser2abP-CTD diheptad repeat peptide (phosphorylated at both Ser2 positions)”: the Kd in [1] is 15 µM; in data set [3], 24 µM; in data set [2], 160 µM.

On to Ser2bP-CTD diheptad repeat peptide, for which the results for the dissociation constant (Kd) in data set [1] and in data set [2] were 76 µM and 240 µM, respectively.

The molecule Ser5abP-CTD diheptad repeat peptide showed a Kd in [2] of 1200 µM.

For the molecule “Ser2abP/Ser5abP-CTD diheptad repeat peptide”, the values for the Kd in data set [1] and in data set [2] were 41 µM and 630 µM, respectively.

B1: Pcf11 CTD-interacting domain (domain or fragment, S. cerevisiae, UniProt P39081 4-139, looked up)
chain: DTEVIVKDFNSILEELTFNSRPIITTLTKLAEENISCAQYFVDAIESRIEKCMPKQKLYAFYALDSICKNVGSPYTIYFSRNLFNLYKRTYLLVDNTTRTKLINMFKLWLNPNDTGLPLFEGSALEKIEQFLIKAS
With B1, the stoichiometry N (commonly the number of molecules, sites or subunits per partner or assembly) in “AUC” stood at 2. In [4], this molecule showed a Kd1 (first binding event) of 50 µM and a Kd2 (second binding event) of 140 µM. This molecule showed an equilibrium dissociation constant (Kd) in [5] of 130 µM. Further, the Kd in [6] is 370 µM.

B2: Pcf11(D117A)-CID (domain or fragment)
chain: DTEVIVKDFNSILEELTFNSRPIITTLTKLAEENISCAQYFVDAIESRIEKCMPKQKLYAFYALDSICKNVGSPYTIYFSRNLFNLYKRTYLLVDNTTRTKLINMFKLWLNPNATGLPLFEGSALEKIEQFLIKAS
In [4], B2 returned a Kd1 (first binding event) of 40 µM and a Kd2 (second binding event) of 430 µM.

B3: Pcf11(D117K)-CID (domain or fragment)
chain: DTEVIVKDFNSILEELTFNSRPIITTLTKLAEENISCAQYFVDAIESRIEKCMPKQKLYAFYALDSICKNVGSPYTIYFSRNLFNLYKRTYLLVDNTTRTKLINMFKLWLNPNKTGLPLFEGSALEKIEQFLIKAS
Take B3: in data set [4], the Kd1 (first binding event) amounted to 30 µM and the Kd2 (second binding event) turned out to be 130 µM.

B4: Pcf11-CID (N107R): Pcf11 with arginine in place of Asn107; CID in vitro, TAP tagged protein in ChIP (protein)
chain: DTEVIVKDFNSILEELTFNSRPIITTLTKLAEENISCAQYFVDAIESRIEKCMPKQKLYAFYALDSICKNVGSPYTIYFSRNLFNLYKRTYLLVDNTTRTKLIRMFKLWLNPNDTGLPLFEGSALEKIEQFLIKAS
Turning to B4, the “Increase of 3′-end recruitment compared with wild type Pcf11-TAP (factor)” value in the data set on ADH1 gene (setting [9]) and with PMA1 gene (setting [9]) was over 2 in each case.

B5: Rtt103 CTD-interacting domain (residues 1-131) (domain or fragment)
chain: MPFSSEQFTTKLNTLEDSQESISSASKWLLLQYRDAPKVAEMWKEYMLRPSVNTRRKLLGLYLMNHVVQQAKGQKIIQFQDSFGKVAAEVLGRINQEFPRDLKKKLSRVVNILKERNIFSKQVVNDIERSL
In turn, B5 came in with a stoichiometry N (proteins per peptide) in [7] of 2. In addition, the Kd is 122 µM in data set [8], 2.1 µM in [5] and 53 µM in [6]. The molecule further registered a Kd1 (first binding event) in data set [4] of 3 µM. The Kd2 (second binding event) in data set [4] is 20 µM.

B6: Rtt103-CID (R108N) (domain or fragment)
chain: MPFSSEQFTTKLNTLEDSQESISSASKWLLLQYRDAPKVAEMWKEYMLRPSVNTRRKLLGLYLMNHVVQQAKGQKIIQFQDSFGKVAAEVLGRINQEFPRDLKKKLSNVVNILKERNIFSKQVVNDIERSL
For B6, the Kd in data set [5] is 100 µM. In addition, the “Reduction of 3′-end recruitment compared with wild type (factor)” value was found to be 5 in the data set with ADH1 gene and 8 in the data set on PMA1 gene.

B7: Rtt103(E115R)-CID (domain or fragment)
chain: MPFSSEQFTTKLNTLEDSQESISSASKWLLLQYRDAPKVAEMWKEYMLRPSVNTRRKLLGLYLMNHVVQQAKGQKIIQFQDSFGKVAAEVLGRINQEFPRDLKKKLSRVVNILKRRNIFSKQVVNDIERSL
As to B7, the stoichiometry N (protein per peptide) in data set [7] was determined as 1. In data set [4], this molecule displayed a Kd1 (first binding event) of 1.8 µM and a Kd2 (second binding event) of over 1000 µM.
